Data from EP1161455B1.

Experiments:
[1] = target: HIV-1 wildtype (WT) SF162 Env (HIV-1 (SF162)) (UniProt P19550); experiment: cell-based or functional assay
[2] = target: HIV-1 Env (LAV) (HIV-1 (LAV)) (UniProt P03377); experiment: cell-based or functional assay

soluble CD4 (from UniProt P01730 26-208) (receptor)
Total β-gal, WT Env (SF162), duplicate 1; effector cells with Env, target cells with CCR5 and no CD4; + sCD4 (100 nM) [1]: 6.6
Total β-gal, WT Env (SF162), mean; + sCD4 (100 nM); 0.45 without sCD4 [1]: 5.9

MAb 17b (antibody)
% control, Standard Assay (target cells with CXCR4 and CD4, no sCD4); 17b 0.1 µg/ml [2]: 93.4 % control
% control, Standard Assay (target cells with CXCR4 and CD4, no sCD4); 17b 0.5 µg/ml [2]: 104 % control
% control, Standard Assay (target cells with CXCR4 and CD4, no sCD4); 17b 1 µg/ml [2]: 94.1 % control
% control, Standard Assay (target cells with CXCR4 and CD4, no sCD4); 17b 5 µg/ml [2]: 119 % control
% control, sCD4 Assay (target cells with CXCR4 alone, sCD4 200 nM added); 17b 0.1 µg/ml [2]: 114 % control
% control, sCD4 Assay (target cells with CXCR4 alone, sCD4 200 nM added); 17b 0.5 µg/ml [2]: 39.2 % control
% control, sCD4 Assay (target cells with CXCR4 alone, sCD4 200 nM added); 17b 1 µg/ml [2]: 14.1 % control
% control, sCD4 Assay (target cells with CXCR4 alone, sCD4 200 nM added); 17b 5 µg/ml [2]: 0 % control
β-gal, Standard Assay (target cells with CXCR4 and CD4, no sCD4); 17b 0.1 µg/ml; no MAb 42.3 [2]: 39.5
β-gal, Standard Assay (target cells with CXCR4 and CD4, no sCD4); 17b 0.5 µg/ml [2]: 43.9
β-gal, Standard Assay (target cells with CXCR4 and CD4, no sCD4); 17b 1 µg/ml [2]: 39.8
β-gal, Standard Assay (target cells with CXCR4 and CD4, no sCD4); 17b 5 µg/ml [2]: 50.5
β-gal, sCD4 Assay (target cells with CXCR4 alone, sCD4 200 nM added); 17b 0.1 µg/ml; no MAb 11.89 [2]: 13.6
β-gal, sCD4 Assay (target cells with CXCR4 alone, sCD4 200 nM added); 17b 0.5 µg/ml [2]: 4.66
β-gal, sCD4 Assay (target cells with CXCR4 alone, sCD4 200 nM added); 17b 1 µg/ml [2]: 1.68
β-gal, sCD4 Assay (target cells with CXCR4 alone, sCD4 200 nM added); 17b 5 µg/ml [2]: 0
